# Experimental data reported in article PMC4888843.
# What was measured:
# human BAXΔC21 (human) = human BAXΔC21 (human) (UniProt Q07812); assay: SEC
# mouse Bcl-2ΔC22 (mouse) = mouse Bcl-2ΔC22 (mouse) (UniProt P10417); assay: SPR
# [1] = target: human MCL-1ΔN170ΔC23 (human) (UniProt Q07820); assay: ELISA
substance,measurement,setting,value
human BAXΔC21 (from UniProt Q07812 1-171) (domain or fragment),stoichiometry N,human BAXΔC21 (human),2
mBak Q75L BH3 synthetic peptide,fold weaker affinity than wild-type mBak BH3,mouse Bcl-2ΔC22 (mouse),2.5 fold
phage-displayed human BAK BH3 peptide G82E (from UniProt Q16611 67-92),IC50,[1],> 10 µM
